Paper PMC6542180

Target: endogenous SHP-1 (UniProt P29351)
Assay: GST pull-down of endogenous macrophage SHP-1
Conditions: reference: wild type

Row | Substance | binding against the reference (sites Y490) | binding against the reference (sites Y519)
1 | EHEC (EDL933) Tir (from UniProt Q7DB77) Y490F | weaker | 
2 | EHEC (EDL933) Tir (from UniProt Q7DB77) Y519F |  | weaker
